Laboratory results taken from patent publication US20240368263A1 (PROMETHEUS BIOSCIENCES, published 2024).
Residue numbers refer to the chain shown, from its start. In names and notes the source's numbering stands.

T1: human TL1A (endogenous, human whole blood assay) (human, UniProt O95150 1-251, limits assumed)
T1 sequence (looked up): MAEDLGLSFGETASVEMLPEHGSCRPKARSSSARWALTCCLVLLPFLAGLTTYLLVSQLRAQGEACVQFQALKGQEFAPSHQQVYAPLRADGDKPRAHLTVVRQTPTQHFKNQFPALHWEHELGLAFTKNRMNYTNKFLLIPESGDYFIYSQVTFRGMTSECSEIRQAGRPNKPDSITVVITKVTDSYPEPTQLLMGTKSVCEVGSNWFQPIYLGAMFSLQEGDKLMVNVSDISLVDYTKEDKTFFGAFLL

T2: human TL1A (Fitzgerald, Prod. #30R-AT070) (human, UniProt O95150 72-251, limits assumed, biotinylated with EZ-Link Sulfo-NHS-LC-Biotin where used as soluble antigen)
T2 construct: also called TNFSF15; biotinylated human TL1A
T2 sequence (looked up): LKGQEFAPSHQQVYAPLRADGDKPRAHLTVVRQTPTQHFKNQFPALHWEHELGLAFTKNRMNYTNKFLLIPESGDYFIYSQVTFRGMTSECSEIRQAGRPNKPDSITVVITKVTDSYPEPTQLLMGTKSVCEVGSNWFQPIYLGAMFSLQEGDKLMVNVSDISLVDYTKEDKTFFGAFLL

B1: 1D1 anti-TL1A antibody (antibody, V domains shown)
VH: QVQLVQSGAEVKKPGASVKVSCKASGYDFTYYGISWVRQAPGQGLEWMGWISTYNGNTHYARMLQGRVTMTTDTSTRTAYMELRSLRSDDTAVYYCARENYYGSGAYRGGMDVWGQGTTVTVSS
VL: EIVLTQSPATLSLSPGERATLSCRASQSVSSYLAWYQQKPGQAPRLLIYDASNRATGIPARFSGSGSGTDFTLTISSLEPEDFAVYYCQQRSNWPWTFGQGTKVEIK
B2: clone 14, IgG2 / kappa (antibody)
heavy: QVQLVQSGAEVKKPGASVKVSCKASGFDIQDTYMHWVRQAPGQGLEWMGRIDPASGHIKYDPKFQKRVTMTRDTSTSTVYMELSSLRSEDTAVYYCARSGGLPDMWGQGTTVTVSSASTKGPSVFPLAPCSRSTSESTAALGCLVKDYFPEPVTVSWNSGALTSGVHTFPAVLQSSGLYSLSSVVTVPSSNFGTQTYTCNVDHKPSNTKVDKTVERKCCVECPPCPAPPVAGPSVFLFPPKPKDTLMISRTPEVTCVVVDVSHEDPEVQFNWYVDGVEVHNAKTKPREEQFNSTFRVVSVLTVVHQDWLNGKEYKCKVSNKGLPAPIEKTISKTKGQPREPQVYTLPPSREEMTKNQVSLTCLVKGFYPSDIAVEWESNGQPENNYKTTPPMLDSDGSFFLYSKLTVDKSRWQQGNVFSCSVMHEALHNHYTQKSLSLSPGK
light: EIVLTQSPGTLSLSPGERATLSCRASSSVSYMYWYQQKPGQAPRLLIYATSNLASGIPDRFSGSGSGTDFTLTISRLEPEDFAVYYCQQWQGNPRTFGGGTKLEIKRTVAAPSVFIFPPSDEQLKSGTASVVCLLNNFYPREAKVQWKVDNALQSGNSQESVTEQDSKDSTYSLSSTLTLSKADYEKHKVYACEVTHQGLSSPVTKSFNRGEC
B3: H3-7 (V102K) Fab (Fab, V domains shown)
VH: QVQLVQSGAEVKKPGASVKVSCKASGFDIQDTYMHWVRQAPGQGLEWMGRIDPASGHTKYDPKFQVRVTMTRDTSTSTVYMELSSLRSEDTAVYYCARSGGLPDKWGQGTTVTVSS
VL: EIVLTQSPGTLSLSPGERATLSCRASSSVSYMYWYQQKPGQAPRLLIYATSNLASGIPDRFSGSGSGTDFTLTISRLEPEDFAVYYCQQWSGNPRTFGGGTKLEIK
notes: Fab; also called 21-3 V102K heavy chain with 18-7 light chain
B4: L3-4 (S92Q) Fab (Fab, V domains shown)
VH: B3 VH with K105V
VL: B3 VL with S91Q
notes: Fab; also called 18-7 S92Q light chain with 21-3 heavy chain
B5: H3-7 (V102M) Fab (Fab, V domains shown)
VH: B3 VH with K105M
VL: B3 VL
notes: Fab; also called 21-3 V102M heavy chain with 18-7 light chain
B6: H3-7 (V102Q) Fab (Fab, V domains shown)
VH: B3 VH with K105Q
VL: B3 VL
notes: Fab; also called 21-3 V102Q heavy chain with 18-7 light chain
B7: L3-4 (S92H) Fab (Fab, V domains shown)
VH: B3 VH with K105V
VL: B3 VL with S91H
notes: Fab; also called 18-7 S92H light chain with 21-3 heavy chain
B8: L3-4 (S92N) Fab (Fab, V domains shown)
VH: B3 VH with K105V
VL: B3 VL with S91N
notes: Fab; also called 18-7 S92N light chain with 21-3 heavy chain
B9: H3-7 (V102W) Fab (Fab, V domains shown)
VH: B3 VH with K105W
VL: B3 VL
notes: Fab; also called 21-3 V102W heavy chain with 18-7 light chain
B10: L3-4 (S92E) Fab (Fab, V domains shown)
VH: B3 VH with K105V
VL: B3 VL with S91E
notes: Fab; also called 18-7 S92E light chain with 21-3 heavy chain
B11: L3-4 (S92D) Fab (Fab, V domains shown)
VH: B3 VH with K105V
VL: B3 VL with S91D
notes: Fab; also called 18-7 S92D light chain with 21-3 heavy chain

Biological target: T1, human TL1A (endogenous, human whole …)
Experiment: cell-based or functional assay

Row | Binder | Potency (IC50, nM), human whole blood assay, mean [nM]
1 | B1 | 0.27

Biological target: T1, human TL1A (endogenous, human whole …)
Experiment: cell-based or functional assay
Remark: another data set of the same source

Row | Binder | IC50, inhibition of IFN-γ production, human whole blood assay [nM]
2 | B2 | 0.35

Biological target: T2, human TL1A (Fitzgerald, Prod. …)
Experiment: ELISA

Row | Binder | binding result
3 | B3 | binds
4 | B4 | binds
5 | B5 | binds
6 | B6 | binds
7 | B7 | binds
8 | B8 | binds
9 | B9 | binds
10 | B10 | binds
11 | B11 | binds
